Measurements reported in paper PMC10671485.

Experiments:
Test in all cases: fluorescence anisotropy
[1] = test system: POLRMT T315E (phosphomimic) (Homo sapiens); details: N=5; 20 mM Tris-HCl EDTA buffer (pH and salt not given), 3 nM labeled duplex, 0-20 nM POLRMT, 25 °C; fit with Hill slope
POLRMT WT (Homo sapiens) = details: no TFAM or TFB2M mentioned; N=7; 20 mM Tris-HCl EDTA buffer (pH and salt not given), 3 nM labeled duplex, 0-20 nM POLRMT, 25 °C; fit with Hill slope
[2] = test system: POLRMT T993E (phosphomimic) (Homo sapiens); details: N=4; 20 mM Tris-HCl EDTA buffer (pH and salt not given), 3 nM labeled duplex, 0-20 nM POLRMT, 25 °C; fit with Hill slope
[3] = test system: POLRMT K402Q (acetyl mimic) (Homo sapiens); details: N=5; 20 mM Tris-HCl EDTA buffer (pH and salt not given), 3 nM labeled duplex, 0-20 nM POLRMT, 25 °C; fit with Hill slope

Substance: light strand promoter (LSP) duplex
- Kd [1]: 1.55 nM
- Kd (POLRMT WT (Homo sapiens)): 3.45 nM
- Kd [2]: 2.87 nM
- Kd [3]: 3.02 nM
